The values that follow come from IntAct's records for PubMed 12163175.

Sequences and labels used below:
B1: Protein ROG3 (Saccharomyces cerevisiae), P43602 (parent)
chain: MGFSSGKSTKKKPLLFDIRLKNVDNDVILLKGPPNEAPSVLLSGCIVLSINEPMQIKSISLRLYGKIQIDVPLERPQDASSSSLSSSPPKIRKYNKVFYNYAWDNVNLKEYLSGLRGQSGLAGSSSSSNILGTRQRAQSTSSLKSLKGSSSPSSCTLDKGNYDFPFSAILPGSLPESVESLPNCFVTYSMESVIERSKNYSDLICRKNIRVLRTISPAAVELSETVCVDNSWPDKVDYSISVPNKAVAIGSATPINISIVPLSKGLKLGSIKVVLFENYQYCDPFPPVISENRQVTELNLEDPLNESSGEFNGNGCFVNNPFFQPDHSFQDKWEIDTILQIPNSLSNCVQDCDVRSNIKVRHKLKFFIILINPDGHKSELRASLPIQLFISPFVALSIKPLSSSNLYSLFSTTNQKDENSSQEEEEEYLFSRSASVTGLELLADMRSGGSVPTISDLMTPPNYEMHVYDRLYSGSFTRTAVETSGTCTPLGSECSTVEDQQQDLEDLRIRLTKIRNQRDNLGLPPSASSAAASRSLSPLLNVPAPEDGTERILPQSALGPNSGSVPGVHSNVSPVLLSRSPAPSVSAHEVLPVPSGLNYPETQNLNKVPSYGKAMKYDIIGEDLPPSYPCAIQNVQPRKPSRVHSRNSSTTLSSSIPTSFHSSSFMSSTASPISIINGSRSSSSGVSLNTLNELTSKTSNNPSSNSMKRSPTRRRATSLAGFMGGFLSKGNKR
B2: Protein ROD1 (Saccharomyces cerevisiae), Q02805 (parent)
chain: MFSSSSRPSKEPLLFDIRLRNLDNDVLLIKGPPDEASSVLLSGTIVLSITEPIQIKSLALRLFGRLRLNIPTVLQTVHGPHKRYSKFERNIYSHFWDDFNIKSYFQNLYDNHNNGKITISSKSSTNLAALPKRKRALSTASLISSNGQTSASKNYHTLVKGNYEFPFSAIIPGSLVESVEGLPNAAVTYALEATIERPKQPDLICKKHLRVIRTLAIDAVELSETVSVDNSWPEKVDYTISIPTKAIAIGSSTMINILIVPILKGLKLGPVRISLVENSQYCGSYGGVINQERMVAKLKLKDPLKHVAQIKKKRSLNEAADEGVDTDTGEFQDKWEVRALLNIPASLTKCSQDCRILSNIKVRHKIKFTISLLNPDGHISELRAALPVQLFISPFVPVNVKTSDVIERTLKTFGPSYQVTSQHDNSFSSKNFVDDSEEDVIFQRSASALQLSSMPTIVSGSTLNINSTDAEATAVADTTMVTSLMVPPNYGNHVYDRVYGEVTNEDETSASASSSAVESQAIHNIQNLYISDSNNSNNPILAPNPQIKIEDDSLNNCDSRGDSVNNSNLNLVNSNLTISENWNNNSPSANRYNNIINAGLNSPSLTPSFAHLSRRNSYSRQTSSTSLKNDLELTDLSRVPSYDKAMKSDMIGEDLPPAYPEEELGVQENKKIELERPQILHHKSTSSLLPLPGSSKSSNNLKRSSSRTHLSHSPLPRNNSGSSVSLQQLARNNTDSSFNLNLSFTSAKSSTGSRHFPFNMTTSFTSNSSSKNNSHFDKTDSTSDANKPREEENYTSATHNRRSRSSSVRSNNSNSPLRQGTGSFANLMEMFTKRDRS

In one experiment the parent is B1. The following applies: with rsp5_yeast RSP5, P39940.
Target sequence in this assay (P39940 whole entry): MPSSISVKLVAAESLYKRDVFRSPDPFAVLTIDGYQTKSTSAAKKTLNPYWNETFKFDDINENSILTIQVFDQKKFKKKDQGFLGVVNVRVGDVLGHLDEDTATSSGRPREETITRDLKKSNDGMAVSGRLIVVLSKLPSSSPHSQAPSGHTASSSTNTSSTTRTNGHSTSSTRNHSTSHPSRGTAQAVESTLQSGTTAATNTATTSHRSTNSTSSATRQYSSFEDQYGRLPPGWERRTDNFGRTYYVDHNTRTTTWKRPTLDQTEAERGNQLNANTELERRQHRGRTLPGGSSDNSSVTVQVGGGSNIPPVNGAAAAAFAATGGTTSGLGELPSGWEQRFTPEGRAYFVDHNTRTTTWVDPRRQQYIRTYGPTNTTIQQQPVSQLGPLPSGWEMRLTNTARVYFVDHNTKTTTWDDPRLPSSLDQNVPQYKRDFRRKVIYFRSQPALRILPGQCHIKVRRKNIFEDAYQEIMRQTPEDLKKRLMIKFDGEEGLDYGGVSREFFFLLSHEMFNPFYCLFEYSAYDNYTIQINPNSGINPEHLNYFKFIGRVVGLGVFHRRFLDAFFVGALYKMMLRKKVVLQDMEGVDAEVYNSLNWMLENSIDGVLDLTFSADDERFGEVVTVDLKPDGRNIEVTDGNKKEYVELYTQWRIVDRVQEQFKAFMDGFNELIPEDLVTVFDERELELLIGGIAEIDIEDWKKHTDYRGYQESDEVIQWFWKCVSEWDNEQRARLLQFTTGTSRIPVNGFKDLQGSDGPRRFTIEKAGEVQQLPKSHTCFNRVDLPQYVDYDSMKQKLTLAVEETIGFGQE
In the case of C487Q;T488A, the “effect of a mutation on the interaction” value was “disrupting interaction”.

The variants in another experiment derive from B2. The following applies: with rsp5_yeast RSP5, P39940.
Target sequence in this assay (P39940 whole entry): as above
Take P487Q;P488A: the “effect of a mutation on the interaction” value is “disrupting interaction”.
